The values below come from US20240294585A1 (MANTRA BIO, published 2024).

Experiment [1] concerns the target T1, Isopeptide(3)_Isopeptide(1)_Isopeptide(2) domains-IGSF8 VLM fusion protein (Homo sapiens (IGSF8 portion)).
T1 construct: Flag-tagged fusion of three isopeptide domains and IGSF8; also called Tricatcher-1-IGSF8; Tricatcher-1-IGSF8 fusion protein
As to the kind of experiment: Capillary electrophoresis-Western blot, anti-V5, peptide incubated 3 h at RT with modified EVs (FIG. 13). On the procedure:
(§1) EVs were harvested and purified from producer cells transfected with each of the indicated recombinant isopeptide domain-containing proteins as described above in Example 11. EVs denoted as “Un” were harvested and purified in parallel from untransfected cells. Two additional GPC3 affinity peptide-Isopeptide Tag fusion peptides, namely to either Isopeptide-1 tag or Isopeptide-3 tag, are tested for the ability form a covalent bond (i.e., isopeptide bond) with the IGSF8 fusion proteins comprising IGSF8 as a VLM and an Isopeptide-2 domain (SEQ ID NO: 200 from expression vector in FIG. 2), Isopeptide-1 and Isopeptide-2 domains (SEQ ID NO: 202 from expression vector in FIG. 3) or Isopeptide-1, Isopeptide-2 and Isopeptide-3 domains (SEQ ID NO: 204 from expression vector in FIG. 4; also called Tricatcher-1-IGSF8 fusion protein), indicated as “Iso-2,” “Di” and “Tri,” respectively, for the Isopeptide domain-VLM status (see FIG. 13). GPC3 affinity peptide (PEPN)-Isopeptide-1 Tag fusion peptide and GPC3 affinity peptide-Isopeptide-3 Tag fusion peptide additionally have an S-peptide epitope tag (S-tag) and V5 epitope tag, respectively; while the IGSF fusion proteins all have a Flag epitope tag. […]
(In general: A western blot detects proteins with antibodies after separation by electrophoresis.)

Experiment [2] addresses T2, Isopeptide(1)_Isopeptide(2) domains-IGSF VLM fusion protein (Homo sapiens (IGSF8 portion)).
T2 construct: also called Di; DiCatcher-IGSF8
In words: Capillary electrophoresis-Western blot, anti-S-tag, peptide incubated 3 h at RT with modified EVs (FIG. 13). As to the method: as §1

Experiment [3] deals with T1, Isopeptide(3)_Isopeptide(1)_Isopeptide(2 …). The experiment is described as above. As to the method: as §1
For experiment [4], the target named is T3, Isopeptide(2) domain-IGSF8 VLM fusion protein (Homo sapiens (IGSF8 portion)).
T3 construct: also called Iso-2; isopeptide(2)-IGSF8
T3 chain: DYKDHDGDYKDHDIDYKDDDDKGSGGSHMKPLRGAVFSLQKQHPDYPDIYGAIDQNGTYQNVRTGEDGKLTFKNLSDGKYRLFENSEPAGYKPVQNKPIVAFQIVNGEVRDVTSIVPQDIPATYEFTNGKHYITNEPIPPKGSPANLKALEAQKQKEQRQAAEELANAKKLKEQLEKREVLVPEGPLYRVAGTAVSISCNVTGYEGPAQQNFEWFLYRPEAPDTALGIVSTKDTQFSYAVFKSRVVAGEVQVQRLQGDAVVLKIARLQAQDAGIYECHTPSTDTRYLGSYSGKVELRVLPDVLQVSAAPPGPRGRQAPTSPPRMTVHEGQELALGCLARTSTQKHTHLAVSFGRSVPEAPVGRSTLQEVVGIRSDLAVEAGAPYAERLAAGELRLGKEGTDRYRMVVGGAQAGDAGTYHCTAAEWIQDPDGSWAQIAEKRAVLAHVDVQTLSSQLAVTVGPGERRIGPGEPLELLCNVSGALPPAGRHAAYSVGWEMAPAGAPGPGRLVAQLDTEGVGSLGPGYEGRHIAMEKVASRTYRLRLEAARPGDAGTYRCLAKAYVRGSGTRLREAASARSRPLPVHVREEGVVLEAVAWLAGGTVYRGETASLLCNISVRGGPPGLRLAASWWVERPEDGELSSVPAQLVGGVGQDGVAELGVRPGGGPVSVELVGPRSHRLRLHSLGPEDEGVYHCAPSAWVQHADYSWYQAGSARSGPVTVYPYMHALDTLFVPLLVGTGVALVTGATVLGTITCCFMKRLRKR
In words: Capillary electrophoresis-Western blot (Jess), anti-myc, 50 µM peptide, 3 h at RT with modified EVs. As to the method:
(§2) for a total volume of 50 μL. […] Samples are mixed by repeated pipetting. The microtiter plate is covered, spun at 50×g for 1 min and incubated at RT with shaking on an orbital shaker for 3 hrs. Reaction is terminated by adding 12.5 μL of 5× termination buffer (5% SDS, 300 mM Tris-HCl (pH 6.8)), mixing and transferring to 1.5-mL microfuge tube, and heating the tube to 95° C., 5 min. Samples are analyzed on a combined automated capillary electrophoresis and Western blot system (Jess™ Simple Western system) according to the manufacturer ProteinSimple® (San Jose, CA), using anti-myc or anti-FLAG antibody as a primary antibody followed by a goat anti-mouse secondary antibody-conjugated to horseradish peroxidase for chemiluminescent detection.

Experiment [5] deals with T2, Isopeptide(1)_Isopeptide(2) …. In words: Capillary electrophoresis-Western blot (Jess), anti-myc, peptide incubated with modified EVs. On the procedure: as §2
Experiment [6] has as its target T1, Isopeptide(3)_Isopeptide(1)_Isopeptide(2 …). The experiment is described as above. On the procedure:
as §2

Experiment [7] shares this target. As to the kind of experiment: Cy3 fluorescence on SDS-PAGE, conjugate incubated with modified EVs. As to the method: 3 μL 500 mM DTT. Samples are mixed, vortexed briefly, spun and heated to 95° C. for 5 min before loading 15 μL per well of NuPAGE® Bis-Tris precast gel. Gel is run at 125V for 1 hr using 1×2-(N-morpholino)ethanesulfonic acid (MES) buffer, following gel manufacturer recommendation, with the loading dye front permitted to run off the gel in order to better separate high molecular weight bands. Seeblue Plus 2 Pre-stained Standard is used as molecular weight standard to follow the course of the electrophoresis and well as a reference for the determining the apparent molecular weight of the targeting moiety-VLM conjugate, in particular, the 5′-IsoPepTag1-ASO-Tricatcher-1-IGSF8 and 3′-IsoPepTag1-ASO-Tricatcher-1-IGSF8 conjugates.

The target in experiment [8] is T3, Isopeptide(2) domain-IGSF8 VLM fusion …. As to the kind of experiment: Capillary electrophoresis-Western blot (Jess), anti-myc, peptide incubated with modified EVs. On the procedure:
as §2

B1: V5-epitope tagged Isopeptide(3) tag fusion peptide, SEQ ID NO: 244 (peptide)
peptide: THVSPNQGGLPSSGGGGSGGGGGKPIPNPLLGLDSTDPIVMIDNDKPIT
notes: also called N-terminal PEPN + Isopeptide(3) tag
With B1, in experiment [1], the binding result is listed as “binds”.

B2: S-tag labeled Isopeptide(1) tag fusion peptide, SEQ ID NO: 238 (peptide)
peptide: AHIVMVDAYKPTKSGGGGSGGGGKETAAAKFERQHMDSTHVSPNQGGLPS
notes: Order is isopeptide-1 tag, linker, S-tag, PEPN; also called C-terminal PEPN + Isopeptide(1) tag
With B2, the binding result in experiment [2] and in experiment [3] was “binds” in each case.

B3: N-IsoPep2Tag-PEPN (peptide)
peptide: KLGDIEFIKVNKSGGGGSGGGGEQKLISEEDLTHVSPNQGGLPS
notes: also called Isopeptide-2 tag-PEPN fusion peptide (tag at N-terminus); C-terminal PEPN + Isopeptide(2) tag
Take B3: the binding result in experiment [4], in experiment [5] and in experiment [6] was “binds” each time.

B4: 3′-IsoPepTag1-ASO (peptide)
peptide: CAHIVMVDAYKPTK
modifications: N-terminal Cys joined by click chemistry to the 3′ end of the antisense oligonucleotide TGC GCT CCT GGA CGT AGC C, which carries Cy3 at its 5′ end
notes: Peptide-oligonucleotide conjugate; also called 3′-IsoPep1Tag-ASO; C-IsoPep1Tag-ASO
On to B4, for which, in experiment [7], the binding result is listed as “binds”.

B5: C-IsoPep2Tag-PEPN (peptide)
peptide: THVSPNQGGLPSSGGGGSGGGGEQKLISEEDLKLGDIEFIKVNK
notes: also called Isopeptide-2 tag-PEPN fusion peptide (tag at C-terminus); N-terminal PEPN + Isopeptide(2) tag
With B5, the binding result in experiment [8], in experiment [5] and in experiment [6] was “binds” throughout.

B6: V5-epitope tagged Isopeptide(3) tag fusion peptide, SEQ ID NO: 246 (peptide)
peptide: DPIVMIDNDKPITSGGGGSGGGGGKPIPNPLLGLDSTTHVSPNQGGLPS
notes: also called C-terminal PEPN + Isopeptide(3) tag
With B6, the binding result in experiment [1] is “binds”.

B7: 5′-IsoPepTag1-ASO (peptide)
peptide: AHIVMVDAYKPTKC
modifications: C-terminal Cys joined by click chemistry to the 5′ end of the antisense oligonucleotide TGC GCT CCT GGA CGT AGC C, which carries Cy3 at its 3′ end
notes: Peptide-oligonucleotide conjugate; also called 5′-IsoPep1Tag-ASO; Cy3-labeled IsoPep1Tag-ASO conjugate
As to B7, the binding result in experiment [7] was “binds”.
